{"source": "patent US20060211084A1", "about": "(TH NITRATE ELIMINATION, published 2006)", "target": "the molecule itself", "experiment": "gel filtration chromatography (self-association)"}
{"protein": "simplified eukaryotic nitrate reductase (S-NaR1) (enzyme, Expressed in Pichia pastoris and purified by nickel IMAC; also called nitrate-reducing portion of Pichia angusta NAD(P)H: nitrate reductase) MDSIVTEVTYGLEIKKIKDITELPFPVRQDSPLTEVLPTDLKTKDNFVARDPDLLRLTGSHPFNSEPPLTKLYDSGFLTPVSLHFVRNHGPVPYVPDENILDWEVSIEGMVETPYKIKLSDIMEQFDIYSTPVTMVCAGNRRKEQNMVKKGAGFNWGAAGTSTSLWTGCMLGDVIGKARPSKRARFVWMEGADNPANGAYRTCIRLSWCMDPERCIMIAYQQNGEWLHPDHGKPLRVVIPGVIGGRSVKWLKKLVVSDRPSENWYHYFDNRVLPTMVTPEMAKSDDRWWKDERYAIYDLNLQTIICKPENQQVIKISEDEYEIAGFGYNGGGVRIGRIEVSLDKGKSWKLADIDYPEDRYREAGYFRLFGGLVNVCDRMSCLCWCFWKLKVPLSELARSKDILIRGMDERMMVQPRTMYWNVTSMLNNWWYRVAIIREGESLRFEHPVVANKPGGWMDRVKAEGGDILEQKLISEEDLNSAVDHHHHHH", "values": [{"measurement": "binding result", "value": "binds"}]}
